Target: the molecule itself
Assay: light scattering; GTP-dependent oligomerisation of recombinant Irga6 monitored by conventional light scattering, as described earlier (ref. 16)

B1: recombinant wt Irga6 (bacterially expressed, from pGEX-4T-2-Irga6) (natural protein)
chain: MGQLFSSPKSDENNDLPSSFTGYFKKFNTGRKIISQEILNLIELRMRKGNIQLTNSAISDALKEIDSSVLNVAVTGETGSGKSSFINTLRGIGNEEEGAAKTGVVEVTMERHPYKHPNIPNVVFWDLPGIGSTNFPPNTYLEKMKFYEYDFFIIISATRFKKNDIDIAKAISMMKKEFYFVRTKVDSDITNEADGKPQTFDKEKVLQDIRLNCVNTFRENGIAEPPIFLLSNKNVCHYDFPVLMDKLISDLPIYKRHNFMVSLPNITDSVIEKKRQFLKQRIWLEGFAADLVNIIPSLTFLLDSDLETLKKSMKFYRTVFGVDETSLQRLARDWEIEVDQVEAMIKSPAVFKPTDEETIQERLSRYIQEFCLANGYLLPKNSFLKEIFYLKYYFLDMVTEDAKTLLKEICLRN
notes: Irga6, mouse immunity-related GTPase (IRG) protein; Expressed as N-terminal GST fusion; also called recombinant Irga6
Question: Does B1 bind?
Answer: binds

Reference: article PMC3006384, “Phosphorylation of Mouse Immunity-Related GTPase (IRG) Resistance Proteins Is an Evasion Strategy for Virulent Toxoplasma gondii” (PLoS Biology, 2010)
